Test results as given in paper PMC10641069, “Intra- and inter-molecular regulation by intrinsically-disordered regions governs PUF protein RNA binding” (Nature Communications, 2023).
Positions count from the first letter of the chain named. Read-outs that look alike come from different tables or passages of the source.

T1: FBF-2 RBD+CT Loop6A (Caenorhabditis elegans, UniProt Q09312 164-632, E592A;D594A;E597A;E599A;E604A;E605A)
T1 sequence: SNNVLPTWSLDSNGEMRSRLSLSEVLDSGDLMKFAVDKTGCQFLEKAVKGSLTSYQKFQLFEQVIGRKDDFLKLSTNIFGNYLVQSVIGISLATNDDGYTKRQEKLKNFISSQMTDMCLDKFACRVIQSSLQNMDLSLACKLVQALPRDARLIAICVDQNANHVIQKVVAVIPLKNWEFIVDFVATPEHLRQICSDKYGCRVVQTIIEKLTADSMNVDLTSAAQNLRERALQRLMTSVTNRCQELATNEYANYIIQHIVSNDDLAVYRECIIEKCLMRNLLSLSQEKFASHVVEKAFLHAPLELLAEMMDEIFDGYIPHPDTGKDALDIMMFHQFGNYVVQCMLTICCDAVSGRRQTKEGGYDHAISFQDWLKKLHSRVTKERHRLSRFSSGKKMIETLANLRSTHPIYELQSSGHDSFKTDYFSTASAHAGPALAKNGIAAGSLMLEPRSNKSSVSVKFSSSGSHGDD

T2: FBF-2 RBD+CT Y479A (Caenorhabditis elegans, UniProt Q09312 164-632, Y479A)
T2 sequence: T1 sequence with Y316A, A429E, A431D, A434E, A436E, A441E, A442E


Assays:
[1] = molecular target: T3, FBF-2 RBD + CT L610A (Caenorhabditis elegans, UniProt Q09312, L610A); format: binding, C. elegans; conditions: pH 7.4
T3 construct: A cDNA fragment encoding C. elegans FBF-2 RBD + CT (residues 164-632) was cloned into the pSMT3 vector; His6-SUMO (N, cleaved yes); made in house; host or cells: E. coli BL21-CodonPlus (DE3)-RIL (as for wild type)
T3 sequence (Q09312 164-632 L610A): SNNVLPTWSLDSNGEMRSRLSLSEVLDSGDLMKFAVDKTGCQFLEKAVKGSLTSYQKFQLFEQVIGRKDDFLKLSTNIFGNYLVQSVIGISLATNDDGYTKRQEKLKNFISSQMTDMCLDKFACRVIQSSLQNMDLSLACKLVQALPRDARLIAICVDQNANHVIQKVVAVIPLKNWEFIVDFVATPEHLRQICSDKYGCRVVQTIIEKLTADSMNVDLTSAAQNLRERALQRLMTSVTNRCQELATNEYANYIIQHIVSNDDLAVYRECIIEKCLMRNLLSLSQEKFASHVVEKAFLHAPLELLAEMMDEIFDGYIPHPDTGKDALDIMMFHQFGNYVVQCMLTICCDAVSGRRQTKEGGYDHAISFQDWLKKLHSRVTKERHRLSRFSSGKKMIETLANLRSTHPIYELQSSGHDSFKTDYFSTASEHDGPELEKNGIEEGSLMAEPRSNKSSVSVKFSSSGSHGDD

[2] = test system: gld-1 FBEa RNA; experiment: Electrophoretic mobility shift assay (EMSA), RNA binding; parameters: species or system C. elegans; conditions: LST-1 B 50 μM
Experimental: A 3′-Cy5-labeled synthetic RNA was ordered from IDT (gld-1 FBEa, 5′-[…]-3′). The FBF-2 proteins were serially diluted 2-fold from the highest concentration of 10 µM in the buffer used for gel filtration (20 mM HEPES pH 7.4, 150 mM NaCl, and 0.5 mM TCEP). 10 µl of the serially diluted protein samples were mixed with 10 µl RNA (10 nM) in a 2× buffer of 10 mM HEPES pH 7.4, 0.01% (v/v) Tween 20, 0.1 mg/ml BSA, 0.1 mg/ml yeast tRNA, and 2 mM DTT. For experiments in the presence of LST-1, LST-1 proteins at constant concentration were preincubated with FBF-2 at 4 °C for 2 h. The LST-1 concentrations were chosen based on their Kd’s for interaction with FBF-2. The final FBF-2 concentrations ranged from 5000 nM to 0.6 nM, and the LST-1 A or B concentrations were constant at 150 μM or 50 μM, respectively. The protein-RNA mixtures were incubated at 4 °C overnight. The samples were resolved on 10% TBE polyacrylamide gels run at constant voltage (100 V) with 1× TBE buffer at room temperature for 35 min. The gels were scanned and visualized with a Typhoon FLA 9500 imager using the Cy5 channel (excitation wavelength 635 nm). Band intensities were quantified with ImageQuant 5.2 (Cytiva). The data were fit with GraphPad Prism (version 9.2.0) using nonlinear regression with a one-site specific binding model. Mean Kd’s and standard error of the mean (SEM) from three or more technical replicates are reported (Supplementary Table 4). Full scan images for the replicates shown in the main figures and gel images for all replicates are included in a source data file.

[3] = molecular target: T1, FBF-2 RBD+CT Loop6A; experiment: EMSA; no LST-1; EMSA: FBF-2 in 20 mM HEPES pH 7.4, 150 mM NaCl, 0.5 mM TCEP mixed 1:1 with 5 nM final RNA in 10 mM HEPES pH 7.4, 0.01% Tween 20, 0.1 mg/ml BSA, 0.1 mg/ml yeast; conditions: protein: recombinant; tags: none (His6-SUMO removed with Ulp1); label: 3'-Cy5
[4] = molecular target: T2, FBF-2 RBD+CT Y479A; experiment: EMSA; 50 uM LST-1 B present (Y479A disrupts LST-1 binding, no complex); EMSA: FBF-2 in 20 mM HEPES pH 7.4, 150 mM NaCl, 0.5 mM TCEP mixed 1:1 with 5 nM final RNA in 10 mM HEPES pH 7.4, 0.01% Tween 20, 0.1 mg/ml BSA, 0.1 mg/ml yeast; conditions: protein: recombinant; tags: none (His6-SUMO removed with Ulp1); label: 3'-Cy5

Molecule | ∆G [1] | -T∆S ([1]; replicate 1, 20 °C) | ∆G ([1]; replicate 1, 20 °C) | ∆H ([1]; replicate 1, 20 °C) | -T∆S ([1]; replicate 2, 20 °C) | ∆H ([1]; replicate 2, 20 °C) | effect on RNA-binding affinity ([2]; of FBF-2 RBD + CT L610A) | effect on RNA-binding affinity ([2]; of FBF-2 RBD + CT Y479A) | Kd [3] | Kd [4]
LST-1 B: LST-1 B peptide, residues 67–98, expressed in E. coli (SSSPQQRSGLRSQKLHLTYIEKNKRVRAMIPQ; left off: His6-SUMO, N-terminal, cleaved) | -9.85 kcal/mol | 6 kcal/mol | -9.56 kcal/mol | -15.5 kcal/mol | 6.98 kcal/mol | -16.8 kcal/mol | little to no effect | no effect |  | 
AUCAUGUGCCAUAC (ssRNA) [gld-1 FBEa RNA (EMSA)] |  |  |  |  |  |  |  |  | 101 ± 21 nM | 41 ± 6 nM
